Experimental data as given in patent US9822336B2, “Blastoid, cell line based artificial blastocyst” (Universiteit Maastricht, priority 2013, dated 2017).

Key:
[1] = tested on: ES-TS cell clusters; assay: Cavitation of ES-TS cell clusters (yield of cavitated blastoids); type: cell-based, mouse; settings: FIG. 4h; CHIR99021 at 3 uM
Experimental: FIG. 4c: […], The yield of cavitated blastoids is described by the percentage of ES-TS cell clusters that were cavitated after 96 hours of culture, thus forming an artificial blastocyst or blastoid. […]
The efficiency of blastoid formation is measured as the percentage of cavitated structures with (1) an external cellular layer expressing the transcription factors CDX2, Eomes and GATA3 and (2) an internal cellular aggregate expressing the transcription factors Oct4 and Sox2 and at least partly Nanog.
The formation of a cavity is assessed by the formation of a volume within the aggregate that is not occupied by cellular nucleus. The formation of a cavity is preferably assessed using the cross-sectional section of a cellular aggregate stained with a nuclear-specific dye (for example DAPI).
• Double layer formation: the formation of an (at least) double layered cell aggregate with an external layer of TS cells and an inner layer of ES cells is evaluated using transgenic cell lines. […] The H2B-RFP ES cells are thus constitutively expressing a red fluorescence within their nucleus which allows for their tracking. • TS cells were derived from a mouse constitutively expressing Green Fluorescent Protein (GFP) under the control of a cytomegalovirus promoter in all cells. […]

[2] = tested on: Cdx2 expression in trophoblast stem cells of ES-TS aggregates; assay: Cdx2 expression by CDX2 immunostaining; type: cell-based, mouse; settings: CDX2 immunostaining (FIG. 4g)
Experimental: • Double layer formation: the formation of an (at least) double layered cell aggregate with an external layer of TS cells and an inner layer of ES cells is evaluated using transgenic cell lines. Specifically, ES cells were transfected with Histone 2B and a Red Fluorescent Protein under the control of a cytomegalovirus promoter and clonally derived. The H2B-RFP ES cells are thus constitutively expressing a red fluorescence within their nucleus which allows for their tracking. • TS cells were derived from a mouse constitutively expressing Green Fluorescent Protein (GFP) under the control of a cytomegalovirus promoter in all cells. The GFP TS cells are thus expressing a green fluorescence in their cytoplasma which allows for their tracking. • The formation of a double-layered aggregate is thus assessed by observing a green outer layer of cells and a red inner layer of cells. The efficiency of engulfment is determined as the percentage of green-colored projection area (representing the TS cell layer) that overlaps with an artificial 3-pixel-wide ring drawn around the red-colored projection area (representing the inner aggregate of ES cells) after 24 hours of culturing the ES-TS cell clusters. […] The formation of a cavity is preferably assessed using the cross-sectional section of a cellular aggregate stained with a nuclear-specific dye (for example DAPI). […]

| Molecule | yield of cavitated blastoids / cavitation [1] | Cdx2 expression [2] |
| --- | --- | --- |
| Wnt3a: Wnt ligand (protein, UniProt P56704 19-352, looked up) Protein Wnt-3a: SYPIWWSLAVGPQYSSLGSQPILCASIPGLVPKQLRFCRNYVEIMPSVAEGIKIGIQECQHQFRGRRWNCTTVHDSLAIFGPVLDKATRESAFVHAIASAGVAFAVTRSCAEGTAAICGCSSRHQGSPGKGWKWGGCSEDIEFGGMVSREFADARENRPDARSAMNRHNNEAGRQAIASHMHLKCKCHGLSGSCEVKTCWWSQPDFRAIGDFLKDKYDSASEMVVEKHRESRGWVETLRPRYTYFKVPTERDLVYYEASPNFCEPNPETGSFGTRDRTCNVSSHGIDGCDLLCCGRGHNARAERRREKCRCVFHWCCYVSCQECTRVYDVHTCK | increases the yield of cavitated blastoids |  |
| HB-EGF: a protein and a growth factor known in the art to activate the MAPK signalling pathway (protein, UniProt Q99075 63-148, looked up, Heparin-binding EGF-like growth factor) Heparin-binding EGF-like …: DLQEADLDLLRVTLSSKPQALATPNKEEHGKRKKKGKGLGKKRDPCLRKYKDFCIHGECKYVKELRAPSCICHPGYHGERCHGLSL |  | positively correlates with an increase of Cdx2 expression |
